Target: T1, SNX5 PX domain (UniProt Q9Y5X3 25-172)
T1 chain: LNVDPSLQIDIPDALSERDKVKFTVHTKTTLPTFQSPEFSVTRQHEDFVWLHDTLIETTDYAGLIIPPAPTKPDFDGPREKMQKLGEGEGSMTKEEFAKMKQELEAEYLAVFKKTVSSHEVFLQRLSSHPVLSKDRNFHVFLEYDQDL
Test: ITC

B1: NRP1 peptide (residues 894 to 918 of the cytosolic tail) (peptide)
peptide: not shown
B1 gave a Kd of 17.6 µM.

Reference: publication PMC9231623 (2022)
